Consider 23 sequences from the DeepSol protein solubility set.

The series in a line: soluble on expression in E. coli; label from the status in PepcDB or PDB records.
Regarding “MAAGSMDGIFRNIFEGCISSCDSSIQRRPYHKNCGCALHERSRGGGSATPCRHGRSEVVMFPIQRSWSEGNSLALHLASSSSSSNLQSLSSSSSISTLASLSSTVSDIDSPI”, the “soluble on expression in E. coli” value is reported as “soluble”.
Under “MAANQNVTKKKKAVIGGIFKAELNNFLMKELAEDGYSGVEVRSTPARAEVIIMATRTQNVLGERGRRIKELTSVVQKRFGFEEGSVELYAEKVSNRGLCAVAQCESLRYKLVGGLAVRRACYGVLRFIMESGAQGVEVIVSGKLRGQRAKAMKFVDGLMIHSGHPVNDYIQQAVRHVQLRQGVIGIKVKIMLPYDPRGQNGPRNALPDHVQIVEPQEEVLPKEPHSQHKEEKKDVQVPAAQPVAPVQ” stands “not soluble”; under “MAAPDIKTIVNGINIKQSFAIQNQIRDGGDGELAKPRYQATVVWDSGYHTTSNVTDGQIIIGDEPVHYGGEGMGITPQDLLLTAVGHCLAASYIGGLSAAHINVESLHVHVSGRVNFRAAFAVEPGNPGFEDISVIVEIQTDAPQEQVTALLEKLKHMAPIPDTIMRPVPVNIEIRHQLK”, “not soluble”; under “MAAQAVSLLREVARLEAPLEELRALQSVVQAVPLHELREQAAELRLRPLFSLLNQNNREQTALCVSILERLLQAVEPIHLARNLRLDLQRGLTHPDDSVKTLTLSQIGRIVENSEAVTEILNNAELLKQIVYCIGGENLSVAKAAIKSLSRISLTQAVLEALFESNLLDDLKNVMKTNDVVRYRVYELIIDISSVSSESLNYCTTSGLVTQLLKELTGEDVLVRATCIEMVTSLAYTHHGRQYLAQEGVIDQISNIIVGADSDPFSGFYLPGFVKFFGNLAVMDSPQQICERYPVFLEKVFEMADSQDPTMIGVAVDTVGILGSSVEGKQVLQKTGTRFERVLMRVGYQAKNASTELKIRCLDAVSSLLYLSPEQQTDDFLGMTESWFSSMSRDSLELFRGISNQPFPELHCAALKVFTAIADQPWAQRLMFNSPGFVEFVMDRSVEHDKASKDAKYELVKALANSKTVAEIFGNSNYLRLRAYLSEGPYYVKPVATTAVEGAD”, “soluble”.
Then “MAARDPEATKARIFEAAVAEFARHGIAGARIDRIAAEARANKQLIYAYYGNKGELFASVLEKKMLDLAISVPVDPDDIEGWIDRLLDYHAAHPELLRLLFWEGMEYGTAELPHEAERQEHYARKVAAVRDGQERGVITDAIPAPDLLFLLVAMANWAVVVPQMKRILVGGGDAGTDGLRDSIKKAARRIVDR”, with “not soluble”; and “MAASGEEDMSELSPAAAPNLDWYEKPEETHAPEVDLETVIPPAQEPSNPAEPFCPRDLVPVVFPGPVSQEDCCQFTCELLKHILYQRHQLPLPYEQLKHFYRKAPQAEDTARKKAWLATEARNRKCQQALAELESVLSHLRDFFARTLVPQVLILLGGNALSPKEFYELDLSRLAPFGVDQGLNTAACLRRLFRAIFLADPFSELQTPPLMGTIVMVQGHRDCGEDWFQPKLNYRVPSRGHKLTVTLSCGRPSVPAMASEDYIWFQAPVTLKGFHE”, with “not soluble”.
Under “MAASRDIFAPDFRRRPYWWEGYEPPECGEDTLPASADVAIVGGGYTGVCCALALREAGIEAVVLEAGRPGEGASTRSGGQVSGGVNVQKKALAAVGESAGQRAERLAARLRDAAASMAYVESLIERYAIECGWHRTGRLTTMWVPAHYQSWQARLDQLNACTGSQARMIPREELAAEIGSSVYHGAALIEHAGHLQPAQLYGGMLRAARDAGARVLGRTPVERIERRAGGYDVHTARGTVRAGQVVIATNGYTGANLGGLKRRIVPVCTHMITTEALPPDLAASLLPTNRAVSESRRVVNHYRLSPDGRRLLFGGRARFVPTDEATTARLLYRAMLKRFPQLAGTRITHSWGGNVAMTLDSMPHIGGADGLHYALGCNGSGVAMMSYLGHCVGRKIATQSGEPINAFDMGEIPGHPFYFGNPWFLFAIGSWYQARDAYDHWRARLEHHHHHH” stands “not soluble”; under “MAAVSIVFEAPDNYGGAPAVSKKPIDFDHLAQQTMGDKDLEIEVLQLFSRSARAALHEMAGADNKTVTATAHRLKGSAQAVGASAVSAAAAAVEEKGNDSALIAKLAAAIVEAENFILKLCR”, “not soluble”.
For “MACFLARFQFISPDSPATKAVTLQIKRSGQDMYACITGHSYSAPVFTVECKLKPDAEWVRDCMASFKEQMEAEGFLLNEGTSESTLPAQPAKKADLTLHDISAFFHLPVKAAASCLGVSQTYLKILCRRLGIDRWPYRKVASVKKHM”, the “soluble on expression in E. coli” value was “not soluble”.
In the case of “MADDLGDEWWTQGDNSDVPEVEEETEHAEEKQPIKSTPKKRKVEKQIPDATKKKKATVKKECFITQERSEEKPDNESNKNKKRRKKKKTITDVLTSSKPVPGSPVDLVSLLKTYHSQTRSVIEQEELTLQDSCFLSCNDLTHSLSSYLKEVCPKWAKMQKQHTQTSSVVLLIVCGSALRTIDLIKQLVTFKGQAKVLKLFAKHIKVEEQIKSLSKGVTHIAVGTPGRICALLEKEGLTVQGLRYLVLDWNYRDQKQRRMVDVPEVKGDLLKMMDQGLIQSCREGTVKIGLF”, the “soluble on expression in E. coli” value was “not soluble”.
Under “MADIVQLKENGVVKYMKTHADAIDGVEGKLVKAVGNETVLGTKNFQDGIQIGGKSVSVNAKPTYEVVKDYWDGTGAYLTESQSVTISNSSNVDEIVLIFSRYNDNGGGIVHSIPVTPNITKLKYELPAVAWVGSASTDPTIAYKKISISKSGTSLVITGDTANTLNEANKKIVFREIGVMRRK” stands “not soluble”.
Under “MADKLDEIIDKVASGQRKKDTIEDTEEEGTRKRKIEQFEDIERPNELSGFKKQKIEENSEIHAEETEESVEAQMVMKKPSEEPELKRRKILIHMEPSITETNPMRIWTVADDLALLTAVAHVQCIRFIHNSLTFSRKFTFSDVEERYCQLMFDEEISKSAKVRLDAMPHRLKAQIEARTPFTRNEERTLMELAENQLKNARKERQDVENHTVLTILHFKKILDGNRQSFHKSRTPQVLSDHYRRIKGYRSEQGNNYNWQALEALTDGNTMDFDINAPLQAARSRYAAISRRPALSGILNRFKTSGSVPDNAIAMINGQFLQYAMTGKSVTMGRASLNEKIDIDLSKEGPATKVLEGRRQLFPVNKR” stands “soluble”.
Under “MADLFDGMKRRMDALIAERFGMKVNINGTDCIVVESDFLAELGPVEGNGKNVVVFSGNVIPRRGDRVVLRGSEFTVTRIRRFNGKPQLTLEENNGGKGA” stands “soluble”; under “MADLLDKIMGSSSSNRIPKRDNRMNQDKDEPTSKRSAPMFSTPKSTTPIGRDSFATMDTMNVQMNMFPVDIKDMPHKIQRFQVDVIVCSSNGKQINANLGVLAAKGDVNSHNRRLAQYYIMRTVHDKLLVKFSGKSHHFLAYDCAATLYLPEGVYTGDDQEEVTLTIDDFPKEEWKFVSKLSRRKDDSYLVVLKPAGFVYTQGEVAQEEANRMELTRIIEIVTSQKLNNEDYLQFGNATFPRLSPPHSEPDAISEIRSGFAKVSRLSQNGGGKAFMTVDTKISPFYKDTSVIKFSSNKLSEMKGGGGGRGGYGRSDSRDSRGGYRGGRSDSRDFRGVYGNRGGNDRYRDESRGRRDMYDSRRDSGSSNGADYSPSDAAELEHAFGERGNTKRCIEEALKGLDVECTHLKGNLIRVSSIAENNAENTSFMMKDDKGEREVTVAEYFLLQYNIKLKYPRLPLVVSKRFKHESFFPMELLRIAPGQRIKVNKMSPTVQSAMTGRNASMPQHHVKLVQDILRDNLKLEQNKYMDAFGIKLMSTEPIQMTAKLLPPAQIKFKGQTYMPDMSRPAFRTQDKFVEPARIRKIGIVVFDNCIQMRQAEDFCDKLSNFCRDNGITVEKDSRDWSIRELNSSDSVAIQNLMKKWLDDRVDILVGIAREKKPDVHDILKYFEESIGLQTIQLCQQTVDKMMGGQGGRQTIDNVMRKFNLKCGGTNFFVEIPNAVRGKAVCSNNETLRKKLLEHVQFIGFEISHGASRTLFDRSRSQMDGEPSVVGVSYSLTNSTQLGGFTYLQTQKEYKLQKLDEFFPKCVRSYKEHSKTLPTRIVIYRVGAGEGNFNRVKEEVEEMRRTFDKIQPGYRPHLVVIIAQRASHARVFPSCISGNRATDQNIPSGTCVENVLTSYGYDEFILSSQTPLIGTVRPCKYTILVNDAKWSKNELMHLTYFRAFGHQVSYQPPSVPDVLYAAENLAKRGRNNYKIHQRYVNLQAVENRIIKDHSELINEDMREELAAAIVDEMSVAMNGMTIPKRNFWA”, “not soluble”; under “MADNDFLSGEAIMVFKKEILDSHSDFTRSLSHQSASPEAYDQENVFSQDFQPFMKQDKETQNSASQPTSEQSLANRDPCTVPDDLREEMMRQRRKEDAFKTALCDAYKRSQACSYGDQCRFAHGVHELRLPMNPRGRNHPKYKTVLCDKFSMTGNCKYGTRCQFIHKIVDGNAAKLASGAHANTSSKSPARNAAAHNHSLFVPQGSTDRSMDLNQSLPIRQSDLVRAFARATRLDVSGYNSTAQLAQYFESQFQRIQQLSSHHH”, “not soluble”.
“MADNVAGNDRLIWIDLEMTGLDTDRDSIIEIATIVTDAQLNVLAEGPELAIAHSLETLEAMDEWNRNQHRRSGLWQRVLDSQVTHAQAEAQTVAFLGEWIRAGASPMCGNSICQDRRFLHRQMSRLERYFHYRNLDVSTIKELARRWAPAVASGFAKSSAHTALSDVRDSIDELRHYRQFMGTLGGDNGGGVQN”: the “soluble on expression in E. coli” value was “soluble”.
Then “MADRKLVVVFGATGAQGGSVARALLEDGTFRIRVVTRNPEQRAAKELKQQGAEVVRGDQDDAASMELALAGAHATFIVTNYWETCSQDREVQQPHQWDQVFKQGKLLADLAKRLGLHYVVYSGLENIRKLTAGKLAAGHFDGKGEVEEYFRDIGVPMTSVRLPCYFENLLSYFLPQKAADGKSFLLDLPMGDVPMDGMSVSDLGPVVLSLLKKPEEYVGQNIGLSTCRHTAEEYAALLSKHTGKAVHHAKTTPEDYEKLGFQGAQDLANMFRFYTLKPDRNIHLTLRLNPKAQTLDQWLEQHKGDFAQL”, with “soluble”.
Then “MADSTKAGLKKPAFTKVDQLRPGTSGHNVNVKIVSTKMVLQKGRADGPQARQLRISECIVGDETGVIVFTARNDQVDLMKEGSTVTLRNAKIDMYKGSMRLAVDKWGRVEVTEPASFKVKEDTNMSLIEYELVNVVE”, with “soluble”; and “MADTVKLFPENLVTYKLLGEPDGPHYAHYDLVGGRLVVSKKCVSEAPVKKDAISV”, with “not soluble”; and “MADVEDGEETCALASHSGSSGSKSGGDKMFSLKKWNAVAMWSWDVECDTCAICRVQVMDACLRCQAENKQEDCVVVWGECNHSFHNCCMSLWVKQNNRCPLCQQDWVVQRIGKLEHHHHHH”, with “soluble”.
Under “MADYTTIAAQPRNEFGKGFARRLRVAGQVPGVIYGVDVEAPIHFSINRLELHAVLRAHGVNAIIELDIEGEKHLTMIKHVDQNVLTLNADHVDLLAIKRGEKVEVEVPVVLTGETAPGTTLVQDADVVLVEADVLSIPEEITFSVEGLDVDSKVLAGDLAMPANTSLVADAETVIASVNHEEVAEEAEETEGEDAEEAPAAEGEE” stands “soluble”.
Take “MAEDLYKRLNTVDRLFTLALDLHSHTDLAAQTLMKSGKVHSIERVETDMLYQNHDKKFHLRSREFLDFPQNYCDLIVSLLSLQLTNDTPGVLSQIKNILKPDGLFLAVMAGVGTLSELRECLLQAEIEIYGGASPRIYPFADIRAVGALLQRVGFALPVADIEDVTIRYDTMFDLINDLRAMGMQNALINRSRRPVSKRFFLRAAEIYAKRFSDLDGRIRAHFSFIWLSGWAPHPNQQKPIQPGSAQISLADVLVKQSKKT”: the “soluble on expression in E. coli” value is listed as “not soluble”.
Under “MAEPARARPKITPETQHYWDGAKQGELRLQRCDSCAHAYFPPRPFCPKCGSREVSVFKASGKGTLYSYVINHRPLAAGFTEPYAIAVVELEEGPRMMSNILECPQTPEALELDMKLEVTFQKIDDNLTLPQFRPAKG” stands “not soluble”.
